Source: IntAct's records for PubMed 29849149

B1: Beclin-1 (Mus musculus), O88597 (parent)
chain: MEGSKASSSTMQVSFVCQRCSQPLKLDTSFKILDRVTIQELTAPLLTTAQAKPGETQEEEANSGEEPFIETRQDGVSRRFIPPARMMSTESANSFTLIGEASDGGTMENLSRRLKVTGDLFDIMSGQTDVDHPLCEECTDTLLDQLDTQLNVTENECQNYKRCLEILEQMNEDDSEQLQRELKELALEEERLIQELEDVEKNRKVVAENLEKVQAEAERLDQEEAQYQREYSEFKRQQLELDDELKSVENQVRYAQIQLDKLKKTNVFNATFHIWHSGQFGTINNFRLGRLPSVPVEWNEINAAWGQTVLLLHALANKMGLKFQRYRLVPYGNHSYLESLTDKSKELPLYCSGGLRFFWDNKFDHAMVAFLDCVQQFKEEVEKGETRFCLPYRMDVEKGKIEDTGGSGGSYSIKTQFNSEEQWTKALKFMLTNLKWGLAWVSSQFYNK

Variants of: B1
Conditions: with bcl2_mouse Bcl2, P10417
Sequence of bcl2_mouse Bcl2, P10417 (P10417 whole entry): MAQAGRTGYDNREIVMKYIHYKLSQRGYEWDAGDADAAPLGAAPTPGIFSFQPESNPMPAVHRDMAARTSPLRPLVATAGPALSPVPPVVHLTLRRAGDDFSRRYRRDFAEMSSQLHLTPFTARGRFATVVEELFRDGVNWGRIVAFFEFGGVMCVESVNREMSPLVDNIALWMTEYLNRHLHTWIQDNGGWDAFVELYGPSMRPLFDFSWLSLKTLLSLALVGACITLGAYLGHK

| Variant | effect of a mutation on the interaction |
| --- | --- |
| MEGSKASSSTMQVSFVCQRCSQPLKLDTSFKILDRVTIQELTAPLLTTAQAKPGETQEEEANSGEEPFIETRQDGVSRRFIPPARMMSTESANSFTLIGEASDGGTMENLSRRLKVTGDLADIMSGQTDVDHPLCEECTDTLLDQLDTQLNVTENECQNYKRCLEILEQMNEDDSEQLQRELKELALEEERLIQELEDVEKNRKVVAENLEKVQAEAERLDQEEAQYQREYSEFKRQQLELDDELKSVENQVRYAQIQLDKLKKTNVFNATFHIWHSGQFGTINNFRLGRLPSVPVEWNEINAAWGQTVLLLHALANKMGLKFQRYRLVPYGNHSYLESLTDKSKELPLYCSGGLRFFWDNKFDHAMVAFLDCVQQFKEEVEKGETRFCLPYRMDVEKGKIEDTGGSGGSYSIKTQFNSEEQWTKALKFMLTNLKWGLAWVSSQFYNK [F121A] | decreasing interaction strength |
